# Test: label from the status in PepcDB records
row,Sequence,protein production
1,MTNAGTTDLSWLPSDADEQLALGFKIVTNAYKTRVTSQEAEIRSLKGQLTEKQEQLSSIQKKYSNLEVQLIESTQRGNQLADENKQLITTIKKLNRDIDRLENLKKAVLNSIQEEHDVEDAHKYYSADDLLQTTAPRTMLEMNGNEDSCQSIINKIVNSDTHNIINGSFNSPYIGNVPLGEKNTDGRAFFRNARSRLSYEQFNQFLSNIKKLNNHQQKREETLKKAQAIFGEANLDLYEEFKVLISKHS,failed
2,MRVLILGSGVIGTTSAWYLSKAGCEVVVVDRQSGAGLETSYANGGQLSFGYTSPWAAPGVPLKAVRWLFERHAPLSIRPTTDWNQYVWLARMLRHCSAERYAVNKSRMLRLSEYSREALEALSAETGITFEGRRLGTIQLFRTQQQLDGAVRDIELLTQYGIPYEVLSPHQLAKFEPGLADGSVRFVGALRLPHDQTGDCCLFTQRLAALAAKRGVEFRYGCTVQRLEVDGPRVTGAWINGALERADCCVVALGSYSPLLLAPLGLRLPVYPLKGFSLTLPMIDASRAPVSTVLDESYKVAVTRFDERIRVAGMAEVSGYDVSLNPRRRSTLEMVVQDVYPGCGDLGRGEFWTGLRPATPDGTPVIGATPYQGLFLNTGHGTLGWTMSSGSGRYLADLICCRPCEISSEGLDMFRYLVSTIPCPQECAPCVPPTP,failed
3,MAEEKKKKLSIIVFSGTIDKLMPVGILTSGAAASGYEVNLFFTFWGLQAITKRSLNSQQPPQIDKNYEQMGPIMMQKMQEMKYPMWHQLVQQAKEIGEVKVFACSTTMEFFGIKREDLAEFVDDVVGVATFLDRAEGGTTLFI,not failed
4,MTTPRRALIVIDVQNEYVTGDLPIEYPDVQSSLANIARAMDAARAAGVPVVIVQNFAPAGSPLFARGSNGAELHPVVSERARDHYVEKSLPSAFTGTDLAGWLAARQIDTLTVTGYMTHNCDASTINHAVHSGLAVEFLHDATGSVPYENSAGFASAEEIHRVFSVVLQSRFAAVASTDEWIAAVQGGTPLARGNIYASNQKARARRATA,not failed
5,DRRVRRNMEIAEIVGLDAHTKMLRTSTVFQWDSVKDEHAMVGTSKALEEIRRQRGWSVRELNEELERRRRVLEFMLSNGIRMFKDVSAVIHTYQVNPERAMKRLGVEEL,failed
6,KVKWTHEEDEQLRALVRQFGQQDWKFLASHFPNRTDQQCQYRWLRVL,not failed
7,MGHHHHHHSHELLVVGSRPELGRWEPRGAVRLRPAGTAAGDGALALQEPGLWLGEVELAAEEAAQDGAEPGRVDTFWYKFLKREPGGELSWEGNGPHHDRCCTYNENNLVDGVYCLPIGHWIEATGHTNEMKHTTDFYFNIAGHQAMHYSRILPNIWLGSCPRQVEHVTIKLKHELGITAVMNFQTEWDIVQNSSGCNRYPEPMTPDTMIKLYREEGLAYIWMPTPDMSTEGRVQMLPQAVCLLHALLEKGHIVYVHCNAGVGRSTAAVCGWLQYVMGWNLRKVQYFLMAKRPAVYI,failed
8,MKLKSYILVGYIISTLLTILVVFWAVQKMLIAKGEIYFLLGMTIVASLVGAGISLFLLLPVFTSLGKLKEHAKRVAAKDFPSNLEVQGPVEFQQLGQTFNEMSHDLQVSFDSLEESEREKGLMIAQLSHDIKTPITSIQATVEGILDGIIKESEQAHYLATIGRQTERLNKLVEELNFLTLNTARNQVETTSKDSIFLDKLLIECMSEFQFLIEQERRDVHLQVIPESARIEGDYAKLSRILVNLVDNAFKYSAPGTKLEVVAKLEKDQLSISVTDEGQGIAPEDLENIFKRLYRVETSRNMKTGGHGLGLAIARELAHQLGGEITVSSQYGLGSTFTLVLNLSGSENKA,failed
9,MRLFFEFTLCAALGLLVSGVILIFLLFFGKFGLIEYWIASGKPLAHAMLVLMPDGFWEGLSGIEGAAGNPHVRSFLELCMGLGQSALLLGLLLFRLVCWK,failed
10,LFYDSEQDKEQSNPYMVLDIDKLFHVRPVTQTDVYRADAKEIPRIFQILYANEGESKKEQEFPVEPVGEKSNYICHKGHEFIPTLYHFPTNCEACMKPLWHMFKPPPALECRRCHIKCHKDHMDKKEEIIAPCKVYYDISTAKNLLLLANSTEEQQKWVSRLV,failed
11,MNAKEILVHSLRLLENGDARGWCDLFHPEGVLEFPYAPPGWKTRFEGRETIWAHMRLFPEHLTVRFTDVQFYETADPDLAIGEFHGDGVATVSGGKLAQDYISVLRTRDGQILLYRDFWNPLRHLEALGGVEAAAKIVQGA,not failed

# Reference: a protein production outcome set (Wang et al. 2014)
